Target: NKG2D ligands (NKG2DL) on target cells
Assay: cell-based or functional assay

## NKG2D-DAP10-CD3zeta chimeric receptor complex (from UniProt Q9UBK5 19-93)
  target cell apoptosis (U-2 OS), apoptotic cells/0.07 mm^2 (apoptotic cells/0.07 mm^2): 11.7

From US20180135015A1
